In assay [1] the target is T1, partial-length periostin (R1/R2 regions) (Homo sapiens (Human), UniProt Q15063 111-378, limits assumed).
T1 sequence: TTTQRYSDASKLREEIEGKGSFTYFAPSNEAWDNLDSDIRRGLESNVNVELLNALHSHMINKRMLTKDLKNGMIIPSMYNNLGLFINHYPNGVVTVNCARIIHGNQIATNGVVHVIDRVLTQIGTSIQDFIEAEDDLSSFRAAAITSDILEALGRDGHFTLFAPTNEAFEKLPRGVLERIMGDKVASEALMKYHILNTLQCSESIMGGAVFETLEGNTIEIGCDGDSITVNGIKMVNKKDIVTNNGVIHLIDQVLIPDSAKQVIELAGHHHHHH
Briefly: ELISA on immobilized antigen, POD-labeled anti-mouse IgG, A405. On the technique in general: In an ELISA, binding on a coated surface is turned into a signal by an enzyme label.

Assay [2] addresses T2, partial-length periostin (R2 region) (Homo sapiens (Human), UniProt Q15063 235-378, limits assumed).
T2 sequence: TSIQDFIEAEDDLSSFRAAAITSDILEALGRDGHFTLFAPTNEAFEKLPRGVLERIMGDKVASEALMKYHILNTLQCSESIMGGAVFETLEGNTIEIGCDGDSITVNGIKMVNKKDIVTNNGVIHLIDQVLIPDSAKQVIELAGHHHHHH
The assay is described as above.

Assay [3] concerns the target T3, partial-length periostin (R4 region) (Homo sapiens (Human), UniProt Q15063 496-631, limits assumed).
T3 sequence: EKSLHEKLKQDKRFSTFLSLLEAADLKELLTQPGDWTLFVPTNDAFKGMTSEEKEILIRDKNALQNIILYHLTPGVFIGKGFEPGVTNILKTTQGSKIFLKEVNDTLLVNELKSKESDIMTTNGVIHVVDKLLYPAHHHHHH
Described as above.

Assay [4] deals with T4, partial-length periostin (EMI region) (Homo sapiens (Human), UniProt Q15063 22-110, limits assumed).
T4 sequence: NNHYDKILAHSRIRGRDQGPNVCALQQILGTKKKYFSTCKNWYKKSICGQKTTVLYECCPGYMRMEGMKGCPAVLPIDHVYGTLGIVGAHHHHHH
The description is as above.

Assay [5] addresses T5, partial-length periostin (C-terminal region) (Homo sapiens (Human), UniProt Q15063 632-836, limits assumed).
T5 sequence: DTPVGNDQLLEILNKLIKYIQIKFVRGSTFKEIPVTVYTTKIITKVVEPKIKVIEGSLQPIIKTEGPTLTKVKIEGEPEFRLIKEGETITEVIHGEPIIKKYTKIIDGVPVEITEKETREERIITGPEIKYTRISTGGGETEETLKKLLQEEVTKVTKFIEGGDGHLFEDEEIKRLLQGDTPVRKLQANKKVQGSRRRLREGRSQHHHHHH
The description is as above.

The target in assay [6] is T6, periostin (S2 recombinant periostin protein tagged with V5/His) (Homo sapiens (Human), UniProt Q15063 22-836, limits assumed).
T6 construct: also called osteoblastic specific factor 2; OSF2
T6 sequence: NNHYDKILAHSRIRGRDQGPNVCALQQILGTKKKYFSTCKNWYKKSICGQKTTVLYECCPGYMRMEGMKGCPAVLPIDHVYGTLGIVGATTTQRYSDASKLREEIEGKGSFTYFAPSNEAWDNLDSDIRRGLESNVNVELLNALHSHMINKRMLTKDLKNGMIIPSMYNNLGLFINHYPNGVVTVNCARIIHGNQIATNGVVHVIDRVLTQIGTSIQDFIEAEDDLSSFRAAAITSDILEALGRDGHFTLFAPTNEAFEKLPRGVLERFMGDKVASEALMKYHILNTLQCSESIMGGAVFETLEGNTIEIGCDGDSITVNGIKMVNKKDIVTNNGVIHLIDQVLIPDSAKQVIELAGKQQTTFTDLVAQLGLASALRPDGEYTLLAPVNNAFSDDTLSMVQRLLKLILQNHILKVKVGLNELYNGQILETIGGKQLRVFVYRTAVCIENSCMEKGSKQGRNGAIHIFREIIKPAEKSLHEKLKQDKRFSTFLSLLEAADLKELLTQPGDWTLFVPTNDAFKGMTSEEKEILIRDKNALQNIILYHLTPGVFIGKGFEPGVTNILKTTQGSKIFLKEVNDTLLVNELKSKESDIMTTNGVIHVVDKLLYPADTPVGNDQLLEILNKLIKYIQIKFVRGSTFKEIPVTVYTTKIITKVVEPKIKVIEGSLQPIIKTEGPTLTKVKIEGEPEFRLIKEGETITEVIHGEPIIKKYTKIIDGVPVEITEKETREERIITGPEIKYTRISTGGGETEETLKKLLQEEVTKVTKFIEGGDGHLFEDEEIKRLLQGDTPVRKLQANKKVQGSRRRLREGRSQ
Put plainly: ELISA on immobilized antigen (5 ug/mL), A405; bound if difference to control well is 0.2 or more. The procedure:
(8) Subsequently, the absorbance in each well of the microtiter plate in (7) at 405 nm was measured with a spectrophotometer.
Based on the measurement results of the absorbance, if the difference between the obtained measured values of absorbance in the well immobilizing periostin or a partial-length periostin and the measured values of absorbance in the control well (into which phosphate-buffered saline was poured instead of periostin or partial-length periostins) is 0.2 or more, an anti-periostin monoclonal antibody was determined to have bound to the periostin or the partial-length periostin immobilized to the well of the microtiter plate.

B1: anti-periostin monoclonal antibody (SS19D) (antibody, V domains shown)
VH: QVQLQQPGSELVKPGASVKLSCKASGYTFTSYWMHWVKQSPGQGLEWIGEINPSNGRTNYNEKFKTKATLTVDKSSSTAYMQLNSLTSEDSAVYYCVRGDEGFAYWGQGTLVTVSA
VL: NIVLTQSPASLAVSLGQRATISCSASESVDSYGRSFIHWFQQKPGQPPKLLIYLASYLESGVPARFSGSGSRTDFTLTIDPVEADDAATYYCHQNNEDPPTFGGGAKLEIKR
For B1, the binding result in assay [1] is listed as “no binding”; in assay [2], “no binding”; in assay [3] it was “no binding”; in assay [4], “no binding”; in assay [5], “no binding”; in assay [6], “binds”.

(Values after patent US20140308685A1 (SHINO TEST, published 2014).)
